In doi:10.1101/2025.04.14.648684:

Experiments:
[1] = target: All4144(68–214), N-terminal deletion mutant of All4144 lacking the HTH domain (Anabaena sp. PCC7120); test: cross-linking
[2] = target: All4144 (GrpE homolog of Anabaena sp. PCC 7120), full length (Anabaena sp. PCC7120); test: cross-linking

Row | stoichiometry N [1] | stoichiometry N [2] | Substance
1 | 2 |  | All4144(68–214), N-terminal deletion mutant of All4144 lacking the HTH domain (domain or fragment)
2 |  | 2 | All4144 (GrpE homolog of Anabaena sp. PCC 7120), full length (natural protein)
